Patent publication US10465005B2, “JAML specific binding agents, antibodies, and uses related thereto” (Emory University, priority 2011, dated 2019)
“Also recorded” adds a separate entry of the source.

What was measured:
JAML binding with CAR = target: T1, JAML binding with CAR (Homo sapiens, UniProt Q86YT9); assay: CAR binding assay (ELISA, CAR-GST on immobilized sJAML-His); details: CAR-GST 10 μg/ml on immobilized sJAML-His preincubated with antibody; FIG. 1C
T1 construct: soluble JAMLD1D2 was truncated and tagged after residue Leucine259; made in house; host or cells: HEK293T (sJAML-His)
T1 sequence (Q86YT9 20-259): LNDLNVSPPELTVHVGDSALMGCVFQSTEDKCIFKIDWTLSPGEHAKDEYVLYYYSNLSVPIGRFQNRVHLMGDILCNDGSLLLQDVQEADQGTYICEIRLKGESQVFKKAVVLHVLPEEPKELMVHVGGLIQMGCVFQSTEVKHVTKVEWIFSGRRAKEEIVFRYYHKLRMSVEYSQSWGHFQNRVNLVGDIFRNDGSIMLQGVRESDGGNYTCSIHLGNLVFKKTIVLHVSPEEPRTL
Protocol: FIG. 1C. CAR binding assay: sJAML-His was coated in Immulon II microtiter microtiter wells overnight, at 4° C. Microtiter wells were washed and blocked and 100 μl antibody solutions were added to wells for 1 hour RT. After washing, CAR-GST was added at 10 μg/ml for 1 hour RT, washed and the assay was developed with HRP conjugated goat anti GST followed by ABTS and OD measurement at 405 nm.
Because certain antibodies recognize the membrane distal domain of JAML, their ability to inhibit binding to CAR was tested. By ELISA, the levels of soluble CAR-GST bound to immobilized sJAML-His preincubated with anti JAML antibodies was measured. […] Thus, these antibodies recognize three different epitopes on JAML and that both DW100 and DW55 bind epitopes close to the JAML binding site. Using a cell aggregation assay, the possibility that DW100 could inhibit the binding of JAML to CAR expressed on the surface of cells was examined. […] This again confirms previously described JAML binding to CAR, as well as the specificity of DW100 (blocking) and DW216 (non-blocking) Abs to JAML.

[1] = target: T2, CAR binding to JAML on CHO cells (Homo sapiens, UniProt Q86YT9); assay: CAR-GST binding to CHO-JAML by flow cytometry; format: cell-based; details: CAR-GST 20 μg/ml, mAbs 30 μg/ml, FIG. 7C
T2 construct: expressed in transfected cells
T2 sequence (Q86YT9 20-394): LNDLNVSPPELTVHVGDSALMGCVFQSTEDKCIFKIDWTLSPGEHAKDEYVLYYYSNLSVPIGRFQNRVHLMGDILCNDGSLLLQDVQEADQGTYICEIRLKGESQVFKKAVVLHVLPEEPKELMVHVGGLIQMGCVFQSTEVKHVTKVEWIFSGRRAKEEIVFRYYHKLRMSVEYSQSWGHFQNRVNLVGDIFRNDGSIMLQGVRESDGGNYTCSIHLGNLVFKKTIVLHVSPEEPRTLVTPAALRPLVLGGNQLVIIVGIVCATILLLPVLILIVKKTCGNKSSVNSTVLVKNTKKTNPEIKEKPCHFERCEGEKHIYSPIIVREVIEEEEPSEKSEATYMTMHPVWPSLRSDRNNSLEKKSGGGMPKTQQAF
Protocol: FIG. 7C. CHO-K1 cells stably expressing JAML (CHO-JAML) were incubated with CAR-GST alone (20 μg/ml, left panel) or in the presence of DW216 and DW100 mAbs (30 μg/ml, right panel) as described for sJAML and the binding was measured by flow cytometry.
(§1) As it has been established that epithelial CAR is the ligand for JAML on PMN. Whether shed JAML, as well as the recombinant protein could bind to CAR was investigated. To do this, CHO cells stably expressing CAR protein (CHO-CAR) were incubated with either supernatants from PMA activated differentiated PLB-985 (that release high levels of soluble JAML upon activation, (FIG. 2)), or recombinant soluble JAML and stained with DW216 to detect bound JAML. […] The same observation was verified by IF (FIG. 7B). […] The calcium depletion disrupts intercellular junctions of the epithelium and allows for better penetration of soluble JAML.

T84 monolayers = assay: Epithelial barrier recovery after calcium switch (TER, dextran flux); format: cell-based, human; details: for epithelial barrier recovery (TER) after calcium depletion: 30 μg/ml, 20 m/ml, up to 24 hours, FIG. 9A
Protocol: T84 monolayers grown on permeable supports were subjected to transient calcium depletion by preincubation in Ca2+ free buffer (PBS) for 40 min to disassemble tight junctions, followed by switching back to calcium containing medium without (No Tx), or with sJAML or a control recombinant IgSF protein sSIRPa (30 μg/ml). Barrier recovery was measured as transepithelial resistance (TER) at time points as indicated.
FIG. 9B. Flux of fluorescently labeled dextran (3 k) was measured at the 24 h time point for conditions as described in panel A. N=4.
Since CAR plays a role in epithelial barrier, the effect of soluble JAML on epithelial barrier recovery was tested. Transepithelial resistance (TER) recovery experiments and dextran flux assay were performed with T84 cells grown in transwells (FIG. 9) as well as with Caco2 cells. […] As a negative control, a related soluble IgSF molecule SIRPalpha had no effect.

CAR on CHO-CAR cells = target: T3, CAR on CHO-CAR cells (Homo sapiens, UniProt P78310); assay: Soluble JAML binding to CHO-CAR by flow cytometry; format: cell-based; details: sJAML 20 μg/ml, 1 h at 4° C., DW216 detection, FIG. 7A
T3 construct: The full length gene of CAR was cloned into pcDNA3.1-Hygromycin; expressed in transfected cells
T3 sequence (P78310 20-365): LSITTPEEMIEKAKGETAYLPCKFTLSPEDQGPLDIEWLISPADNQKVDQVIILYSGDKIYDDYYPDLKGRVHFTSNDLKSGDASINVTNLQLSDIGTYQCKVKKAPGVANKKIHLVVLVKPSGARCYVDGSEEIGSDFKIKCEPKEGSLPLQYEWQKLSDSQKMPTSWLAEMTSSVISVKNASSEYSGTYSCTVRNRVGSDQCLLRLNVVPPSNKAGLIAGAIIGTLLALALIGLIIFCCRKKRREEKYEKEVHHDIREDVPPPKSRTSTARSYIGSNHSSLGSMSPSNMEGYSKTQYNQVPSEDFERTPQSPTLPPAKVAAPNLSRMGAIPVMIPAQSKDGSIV
Protocol: CHO-K1 cells stably expressing CAR (CHO-CAR) were incubated with supernatants from PMA activated PLB cells (˜5˜10^7 cell activated in 1 ml, left panel) or recombinant soluble JAML-His (sJAML, 20 μg/ml, right panel) for 1 h at 4° C. JAML binding to CAR on the cell surface was measured by flow cytometry and compared to CHO-CAR cells alone (NoTx). The flow micrograph is representative of 4 independent experiments.
as §1

B1: DW100: monoclonal anti-human JAML antibody (IgG1,κ), hybridoma ATCC PTA-13051; VH SEQ ID NO:19, VL SEQ ID NO:22 (antibody, V domains shown)
VH: DVQLVESGAELVRPGASKLSCKALAYTFTDYEMHWVKQTPVHGLEWIGIIHPGSGGTVYNQKFKGKATLTADKSSSTAYMELSSLTSEDSTVYYCTRRRYYGSSYNWYFDVWGAGN
VL: VLTQSPASLAASVGETVTITCRASENIYYSLAWYQQKQGKSPQLLIYNANSLEDGVPSRFSGSGSGTQYSLKINSMQPEDTATYFCEQTYDVPLTFGAGTKLEL
JAML binding with CAR
  inhibition of CAR binding to JAML: inhibit human JAML binding with CAR; also recorded: completely inhibited JAML/CAR interactions; also recorded: completely inhibited binding of JAML to CAR
[1]
  prevention of CAR-GST binding to CHO-JAML: blocked by DW100

B2: sJAML: recombinant soluble fragment of JAML.D1D2 tagged with 10 His residues at the C-terminus (protein)
chain: T1 sequence (Q86YT9 20-259)
T84 monolayers; listed as Soluble JAML
  epithelial barrier recovery (TER) after calcium depletion: decreased epithelial barrier recovery; also recorded: delayed both epithelial barrier recovery and wound restitution
T84 monolayers; listed as soluble JAML
  epithelial barrier recovery (TER) after calcium depletion: significantly impaired the recovery of epithelial barrier
T84 monolayers; 24 h time point, FIG. 9B
  flux of fluorescently labeled dextran (3 k): increased dextran flux
CAR on CHO-CAR cells
  JAML binding to CHO-CAR: JAML binding to CHO-CAR was detected in both cases
